Columns and labels:
Assay in all cases: ELISA; ECM protein coated at 100 nM, BMP-2 0.1 to 100 nM
human plasma fibronectin = target: T1, human plasma fibronectin (human, UniProt P02751-8 32-2296, limits assumed)
T1 construct: Coated on ELISA plates at 100 nM; also called Fn
Protocol: (§1) ELISA plates (Greiner bio-one medium binding, Thermo Fisher Scientific) were coated with 100 nM of ECM proteins in […] of PBS for 1 h at 37° C. Then, wells were washed with […] of PBS-T (0.05% Tween-20) and blocked with […] of BSA solution (1% in PBS-T) for 1 h at room temperature. Wells without ECM protein coating, and wells blocked only with the BSA solution were used as controls for non-specific binding. ECM coated wells and control wells were further incubated 1 h at room temperature with solutions of BMP-2 (Peprotech), murine PDGF-BB (Peprotech), IL-1Ra (R&D Systems), or PIGF₁₂₃₋₁₄₁-fused proteins at concentrations ranging from 0 to 100 nM ([…] in PBS-T containing 0.1% BSA prepared in protein-low bind tubes (PROKEEP, Watson bio lab). Then, wells were washed 3 times with […] of PBS-T and incubated for 1 h with […] of biotinylated polyclonal detection antibodies in PBS-T with 0.1% BSA. Detection antibodies used were from BMP-2 DuoSet ELISA (R&D Systems, DY355) for BMP-2, PDGF-BB DuoSet ELISA (R&D Systems, DY8464) for PDGF-BB and IL-1Ra/IL-1F3
(§2) DuoSet ELISA (R&D Systems, DY480) for IL-1Ra. Wells were further washed 3 times with PBS-T and incubated for 20 min with […] of streptavidin-horseradish peroxidase (HRP). After three washes with PBS-T, TMB (ThermoFisher) was added followed by […] of stop solution (0.16M sulfuric acid). Concentrations of detection antibodies and streptavidin-HRP were used according to the manufacturer's instructions. To calculate the dissociation constants (KD) specific-binding values were fitted with a one site specific binding model using A450 nm=Bmax*[growth factors or IL-1Ra variants]/(KD+[growth factors or IL-1Ra variants]).

human vitronectin = target: T2, human vitronectin (human, UniProt P04004 20-478)
T2 construct: Coated on ELISA plates at 100 nM; also called Vn
Protocol: as §1, §2

human fibrinogen = target: T3, human fibrinogen (human, UniProt P02671 20-644; P02675 31-491; P02679 27-437, limits assumed)
T3 construct: Coated on ELISA plates at 100 nM; also called Fg
T3 sequence (looked up) 1: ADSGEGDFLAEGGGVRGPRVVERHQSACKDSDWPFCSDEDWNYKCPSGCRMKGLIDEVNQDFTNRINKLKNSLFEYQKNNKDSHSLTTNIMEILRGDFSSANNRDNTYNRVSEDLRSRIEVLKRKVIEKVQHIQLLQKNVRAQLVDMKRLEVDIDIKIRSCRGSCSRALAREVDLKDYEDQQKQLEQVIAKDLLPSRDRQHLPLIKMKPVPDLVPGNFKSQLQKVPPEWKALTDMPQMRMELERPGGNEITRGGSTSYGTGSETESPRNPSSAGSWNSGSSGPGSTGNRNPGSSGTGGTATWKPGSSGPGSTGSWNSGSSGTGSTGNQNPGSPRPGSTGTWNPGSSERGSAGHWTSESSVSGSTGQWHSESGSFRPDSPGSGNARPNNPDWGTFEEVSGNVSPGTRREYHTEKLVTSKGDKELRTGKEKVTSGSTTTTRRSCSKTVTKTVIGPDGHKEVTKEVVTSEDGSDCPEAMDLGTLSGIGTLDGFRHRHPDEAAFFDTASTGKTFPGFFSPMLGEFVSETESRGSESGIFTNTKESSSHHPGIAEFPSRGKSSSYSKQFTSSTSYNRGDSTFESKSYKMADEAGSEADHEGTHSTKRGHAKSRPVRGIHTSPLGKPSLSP
T3 sequence (looked up) 2: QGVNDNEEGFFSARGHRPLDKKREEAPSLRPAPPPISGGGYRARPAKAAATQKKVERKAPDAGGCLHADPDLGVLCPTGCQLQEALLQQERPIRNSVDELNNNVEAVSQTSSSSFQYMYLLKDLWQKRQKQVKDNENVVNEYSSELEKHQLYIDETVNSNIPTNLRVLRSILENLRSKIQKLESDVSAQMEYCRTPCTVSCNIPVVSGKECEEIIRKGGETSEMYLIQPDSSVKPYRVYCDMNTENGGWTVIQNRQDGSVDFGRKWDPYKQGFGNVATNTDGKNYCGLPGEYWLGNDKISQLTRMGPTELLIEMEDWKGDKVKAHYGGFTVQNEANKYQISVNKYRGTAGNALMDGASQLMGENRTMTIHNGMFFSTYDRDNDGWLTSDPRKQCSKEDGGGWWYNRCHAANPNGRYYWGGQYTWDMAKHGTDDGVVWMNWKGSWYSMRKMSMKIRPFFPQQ
T3 sequence (looked up) 3: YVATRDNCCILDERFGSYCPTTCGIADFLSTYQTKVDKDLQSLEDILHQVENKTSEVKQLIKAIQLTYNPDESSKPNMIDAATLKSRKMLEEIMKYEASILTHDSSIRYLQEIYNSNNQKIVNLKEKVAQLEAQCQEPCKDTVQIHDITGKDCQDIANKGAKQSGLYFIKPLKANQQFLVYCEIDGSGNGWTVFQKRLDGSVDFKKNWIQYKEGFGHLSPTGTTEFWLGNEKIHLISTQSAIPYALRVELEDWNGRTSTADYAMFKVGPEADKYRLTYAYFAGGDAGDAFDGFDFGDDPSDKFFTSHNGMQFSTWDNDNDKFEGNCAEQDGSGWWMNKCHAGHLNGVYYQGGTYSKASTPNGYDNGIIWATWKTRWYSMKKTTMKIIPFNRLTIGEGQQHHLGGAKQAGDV
Protocol: as §1, §2

Measured: binding result

T1 sequence (P02751 other isoform, or with tags, fused parts or gaps limits assumed): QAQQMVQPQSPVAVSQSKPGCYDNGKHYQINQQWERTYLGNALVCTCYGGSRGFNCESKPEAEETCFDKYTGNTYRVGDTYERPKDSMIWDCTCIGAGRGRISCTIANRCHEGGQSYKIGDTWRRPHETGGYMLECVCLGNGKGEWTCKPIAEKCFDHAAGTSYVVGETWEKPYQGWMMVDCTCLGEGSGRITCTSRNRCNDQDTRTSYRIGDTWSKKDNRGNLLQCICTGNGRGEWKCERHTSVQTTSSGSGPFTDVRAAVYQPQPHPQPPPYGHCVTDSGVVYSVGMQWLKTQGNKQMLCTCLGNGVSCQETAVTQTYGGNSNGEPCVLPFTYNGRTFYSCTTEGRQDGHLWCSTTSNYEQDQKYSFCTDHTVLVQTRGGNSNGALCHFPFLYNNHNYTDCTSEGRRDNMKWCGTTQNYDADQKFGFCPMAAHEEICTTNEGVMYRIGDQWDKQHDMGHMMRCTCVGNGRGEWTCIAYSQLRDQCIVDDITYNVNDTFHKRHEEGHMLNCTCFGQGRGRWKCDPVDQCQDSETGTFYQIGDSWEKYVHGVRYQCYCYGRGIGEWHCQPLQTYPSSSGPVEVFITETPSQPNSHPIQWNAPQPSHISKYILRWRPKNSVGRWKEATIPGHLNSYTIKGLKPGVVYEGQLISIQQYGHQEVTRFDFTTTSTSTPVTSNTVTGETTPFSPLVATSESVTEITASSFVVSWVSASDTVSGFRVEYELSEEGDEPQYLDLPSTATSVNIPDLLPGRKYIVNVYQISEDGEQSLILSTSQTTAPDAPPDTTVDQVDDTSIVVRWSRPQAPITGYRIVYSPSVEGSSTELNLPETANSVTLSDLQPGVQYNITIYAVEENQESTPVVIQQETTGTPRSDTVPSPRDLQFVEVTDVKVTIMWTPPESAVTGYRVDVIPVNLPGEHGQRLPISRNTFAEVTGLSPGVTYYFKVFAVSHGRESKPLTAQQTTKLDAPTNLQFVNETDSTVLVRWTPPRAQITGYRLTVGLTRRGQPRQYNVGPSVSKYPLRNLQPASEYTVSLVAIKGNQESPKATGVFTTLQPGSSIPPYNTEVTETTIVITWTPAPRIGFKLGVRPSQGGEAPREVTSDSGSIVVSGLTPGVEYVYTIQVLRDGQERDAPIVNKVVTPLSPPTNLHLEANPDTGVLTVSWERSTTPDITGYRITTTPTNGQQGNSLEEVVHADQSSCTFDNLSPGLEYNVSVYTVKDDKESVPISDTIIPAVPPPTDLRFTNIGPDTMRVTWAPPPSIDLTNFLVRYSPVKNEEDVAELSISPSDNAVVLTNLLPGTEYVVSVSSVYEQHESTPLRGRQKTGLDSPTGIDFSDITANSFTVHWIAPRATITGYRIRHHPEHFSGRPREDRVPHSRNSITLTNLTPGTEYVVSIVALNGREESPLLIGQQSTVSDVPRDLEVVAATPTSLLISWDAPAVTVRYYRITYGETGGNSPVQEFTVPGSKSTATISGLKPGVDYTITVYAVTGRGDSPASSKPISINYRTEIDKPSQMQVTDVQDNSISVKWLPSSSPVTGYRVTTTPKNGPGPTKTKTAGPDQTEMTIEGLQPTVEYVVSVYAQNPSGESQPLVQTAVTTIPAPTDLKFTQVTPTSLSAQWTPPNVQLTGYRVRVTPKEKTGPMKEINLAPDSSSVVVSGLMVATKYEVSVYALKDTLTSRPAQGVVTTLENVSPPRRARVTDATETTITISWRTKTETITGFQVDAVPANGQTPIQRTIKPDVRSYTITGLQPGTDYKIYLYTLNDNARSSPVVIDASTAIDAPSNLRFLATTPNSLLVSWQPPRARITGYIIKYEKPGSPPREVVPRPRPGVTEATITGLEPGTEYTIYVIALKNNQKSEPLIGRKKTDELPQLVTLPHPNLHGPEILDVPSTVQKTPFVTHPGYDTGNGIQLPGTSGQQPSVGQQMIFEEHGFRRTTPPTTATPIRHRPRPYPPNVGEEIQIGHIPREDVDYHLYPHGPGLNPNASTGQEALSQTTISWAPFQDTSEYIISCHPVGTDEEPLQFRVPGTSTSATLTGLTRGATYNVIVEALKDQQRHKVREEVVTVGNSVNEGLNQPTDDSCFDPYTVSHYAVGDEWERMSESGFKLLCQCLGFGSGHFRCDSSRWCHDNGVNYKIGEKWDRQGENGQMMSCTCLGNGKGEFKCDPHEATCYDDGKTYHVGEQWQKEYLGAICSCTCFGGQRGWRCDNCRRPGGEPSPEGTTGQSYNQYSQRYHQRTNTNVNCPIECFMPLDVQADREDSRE
T2 sequence (P04004 20-478 limits assumed): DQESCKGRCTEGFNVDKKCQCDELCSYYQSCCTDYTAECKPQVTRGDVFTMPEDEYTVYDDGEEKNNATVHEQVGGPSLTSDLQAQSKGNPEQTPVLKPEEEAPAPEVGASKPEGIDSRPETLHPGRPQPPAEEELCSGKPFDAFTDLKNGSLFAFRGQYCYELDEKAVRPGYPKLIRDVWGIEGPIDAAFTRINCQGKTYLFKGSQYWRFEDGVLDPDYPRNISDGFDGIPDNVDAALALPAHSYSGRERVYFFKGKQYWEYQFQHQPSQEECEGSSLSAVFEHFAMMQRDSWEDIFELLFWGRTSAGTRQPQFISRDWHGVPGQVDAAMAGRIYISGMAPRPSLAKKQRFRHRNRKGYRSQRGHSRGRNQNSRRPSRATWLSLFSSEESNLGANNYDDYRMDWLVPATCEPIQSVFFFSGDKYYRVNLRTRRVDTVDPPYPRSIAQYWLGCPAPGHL

B1: BMP-2 (bone morphogenetic protein-2, Peprotech) (ligand, murine, UniProt P21274 281-394, looked up)
chain: QAKHKQRKRLKSSCKRHPLYVDFSDVGWNDWIVAPPGYHAFYCHGECPFPLADHLNSTNHAIVQTLVNSVNSKIPKACCVPTELSAISMLYLDENEKVVLKNYQDMVVEGCGCR
notes: also called wild-type BMP-2
binds: all assays above
